Experimental data as given in patent US12247238B2, “Mogroside biocatalysis methods and products” (The Coca-Cola Company, priority 2019, dated 2025).

Assays:
[1] = β-galactosidase ONPG activity assay; format: biochemical; details: oNPG substrate, over 30 minutes
Description: Standard β-galactosidase assays were performed at room temperature using o-nitrophenyl-β-D-galactopyranoside (ONPG, Sigma) as a substrate in […] with detection of o-nitrophenol release at 420 nm (UV-Spectra Max Spectrophotometer, Molecular Devices, USA). A typical reaction contained 50 mM sodium citrate buffer pH 5.6, 10 mM magnesium chloride and 100 mM potassium chloride with 2 mM ONPG and the desired amount of enzyme (usually […]). Partially purified AoBG (Sigma G5160, USA) was used as a positive control at a final concentration of 1 U mL−1. Vmax was calculated using the SpectraMax Plus software (Molecular Devices, USA) and when required kinetics were determined by varying the concentration of substrate and kinetic determinants calculated using Hyper™ (J. S. Easterby, Liverpool University).
(§1) Cells expressing enzyme variants grown in buffered minimal medium were induced for 72 hr with 1% methanol (refreshed every 24 hr), the culture supernatant harvested and assayed for standard ONPG activity over 30 minutes and mogroside V activity at pH 5.6, 37° C. for 72 hrs. The resultant activity data (Table 2) identified E200 and D258 as the likely catalytic pair for acid/base and nucleophilic attack of mogroside V by the A. oryzae β-glucosidase enzyme.

[2] = Standard mogroside biocatalytic assay, mogroside V substrate; format: biochemical; details: 37 C., pH 5.6; for Initial Rate / Reaction Progress / Sia 1: Mogroside hydrolysis; for Reaction Progress / Sia 1 / Sia:MogIII / Sia:MogIV: 72 h; for Sia:MogIII / Sia:MogIV: product ratio
Description: Standard mogroside biocatalytic assays were performed at 37° C. in 500 μL, volume 50 mM sodium citrate buffer pH 5.6, 10 mM magnesium chloride, 10 mM substrate (typically mogroside V) and 50 μg mL−1 enzyme, and incubated for 24-96 hours. Mogroside glucosidation activity was detected by direct HPLC detection and quantification of mogroside V substrate and mogroside products from filtered reaction supernatant, and quantified by comparison with standard curves based on peak.
Mogroside compounds HPLC separation and quantification was conducted using a Synergi Hydro-RP column (250 mm×4.6 mm or 150 mm×4.6 mm) with an initial flow rate of 1 mL min−1 and a water: acetonitrile gradient as per below, similar to that described by Zhou et al. (WO 2014/150127). Compounds were detected at 210 nm using diode array detector (Agilent Technologies, USA), and calibration curves established using standard curves from 0.1 to 10 mM.
as §1

| Molecule | oNPG [1] | Initial Rate [2] [µmol/min/mg] | Reaction Progress [2] [%] | Sia 1 [2] [%] | Sia:MogIII [2] | Sia:MogIV [2] |
| --- | --- | --- | --- | --- | --- | --- |
| E142Q: A. oryzae β-galactosidase variant, E142Q (protein, UniProt Q2UCU3 19-1005, looked up, variant E142Q) Beta-galactosidase A: ASIKHRLNGFTILEHPDPAKRDLLQDIVTWDDKSLFINGERIMLFSGEVHPFRLPVPSLWLDIFHKIRALGFNCVSFYIDWALLEGKPGDYRAEGIFALEPFFDAAKEAGIYLIARPGSYINAQVSGGGFPGWLQRVNGTLRSSDEPFLKATDNYIANAAAAVAKAQITNGGPVILYQPENEYSGGCCGVKYPDADYMQYVMDQARKADIVVPFISNDASPSGHNAPGSGTGAVDIYGHDSYPLGFDCANPSVWPEGKLPDNFRTLHLEQSPSTPYSLLEFQAGAFDPWGGPGFEKCYALVNHEFSRVFYRNDLSFGVSTFNLYMTFGGTNWGNLGHPGGYTSYDYGSPITETRNVTREKYSDIKLLANFVKASPSYLTATPRNLTTGVYTDTSDLAVTPLIGDSPGSFFVVRHTDYSSQESTSYKLKLPTSAGNLTIPQLEGTLSLNGRDSKIHVVDYNVSGTNIIYSTAEVFTWKKFDGNKVLVLYGGPKEHHELAIASKSNVTIIEGSDSGIVSTRKGSSVIIGWDVSSTRRIVQVGDLRVFLLDRNSAYNYWVPELPTEGTSPGFSTSKTTASSIIVKAGYLLRGAHLDGADLHLTADFNATTPIEVIGAPTGAKNLFVNGEKASHTVDKNGIWSSEVKYAAPEIKLPGLKDLDWKYLDTLPEIKSSYDDSAWVSADLPKTKNTHRPLDTPTSLYSSDYGFHTGYLIYRGHFVANGKESEFFIRTQGGSAFGSSVWLNETYLGSWTGADYAMDGNSTYKLSQLESGKNYVITVVIDNLGLDENWTVGEETMKNPRGILSYKLSGQDASAITWKLTGNLGGEDYQDKVRGPLNEGGLYAERQGFHQPQPPSESWESGSPLEGLSKPGIGFYTAQFDLDLPKGWDVPLYFNFGNNTQAARAQLYVNGYQYGKFTGNVGPQTSFPVPEGILNYRGTNYVALSLWALESDGAKLGSFELSYTTPVLTGYGNVESPEQPKYEQRKGAY | 34.6 ± 0.5 mAu/min/mg | 2.05 | 88 | 43 | 3.8 | 2.2 |
| D258A, E298A: A. oryzae β-galactosidase double variant D258A, E298A (protein, UniProt Q2UCU3 19-1005, looked up, variant D258A E298A) Beta-galactosidase A: ASIKHRLNGFTILEHPDPAKRDLLQDIVTWDDKSLFINGERIMLFSGEVHPFRLPVPSLWLDIFHKIRALGFNCVSFYIDWALLEGKPGDYRAEGIFALEPFFDAAKEAGIYLIARPGSYINAEVSGGGFPGWLQRVNGTLRSSDEPFLKATDNYIANAAAAVAKAQITNGGPVILYQPENEYSGGCCGVKYPDADYMQYVMDQARKADIVVPFISNDASPSGHNAPGSGTGAVDIYGHASYPLGFDCANPSVWPEGKLPDNFRTLHLEQSPSTPYSLLAFQAGAFDPWGGPGFEKCYALVNHEFSRVFYRNDLSFGVSTFNLYMTFGGTNWGNLGHPGGYTSYDYGSPITETRNVTREKYSDIKLLANFVKASPSYLTATPRNLTTGVYTDTSDLAVTPLIGDSPGSFFVVRHTDYSSQESTSYKLKLPTSAGNLTIPQLEGTLSLNGRDSKIHVVDYNVSGTNIIYSTAEVFTWKKFDGNKVLVLYGGPKEHHELAIASKSNVTIIEGSDSGIVSTRKGSSVIIGWDVSSTRRIVQVGDLRVFLLDRNSAYNYWVPELPTEGTSPGFSTSKTTASSIIVKAGYLLRGAHLDGADLHLTADFNATTPIEVIGAPTGAKNLFVNGEKASHTVDKNGIWSSEVKYAAPEIKLPGLKDLDWKYLDTLPEIKSSYDDSAWVSADLPKTKNTHRPLDTPTSLYSSDYGFHTGYLIYRGHFVANGKESEFFIRTQGGSAFGSSVWLNETYLGSWTGADYAMDGNSTYKLSQLESGKNYVITVVIDNLGLDENWTVGEETMKNPRGILSYKLSGQDASAITWKLTGNLGGEDYQDKVRGPLNEGGLYAERQGFHQPQPPSESWESGSPLEGLSKPGIGFYTAQFDLDLPKGWDVPLYFNFGNNTQAARAQLYVNGYQYGKFTGNVGPQTSFPVPEGILNYRGTNYVALSLWALESDGAKLGSFELSYTTPVLTGYGNVESPEQPKYEQRKGAY | INACTIVE |  |  |  |  |  |
| E298A: A. oryzae β-galactosidase variant, E298A (protein, UniProt Q2UCU3 19-1005, looked up, variant E298A) Beta-galactosidase A: ASIKHRLNGFTILEHPDPAKRDLLQDIVTWDDKSLFINGERIMLFSGEVHPFRLPVPSLWLDIFHKIRALGFNCVSFYIDWALLEGKPGDYRAEGIFALEPFFDAAKEAGIYLIARPGSYINAEVSGGGFPGWLQRVNGTLRSSDEPFLKATDNYIANAAAAVAKAQITNGGPVILYQPENEYSGGCCGVKYPDADYMQYVMDQARKADIVVPFISNDASPSGHNAPGSGTGAVDIYGHDSYPLGFDCANPSVWPEGKLPDNFRTLHLEQSPSTPYSLLAFQAGAFDPWGGPGFEKCYALVNHEFSRVFYRNDLSFGVSTFNLYMTFGGTNWGNLGHPGGYTSYDYGSPITETRNVTREKYSDIKLLANFVKASPSYLTATPRNLTTGVYTDTSDLAVTPLIGDSPGSFFVVRHTDYSSQESTSYKLKLPTSAGNLTIPQLEGTLSLNGRDSKIHVVDYNVSGTNIIYSTAEVFTWKKFDGNKVLVLYGGPKEHHELAIASKSNVTIIEGSDSGIVSTRKGSSVIIGWDVSSTRRIVQVGDLRVFLLDRNSAYNYWVPELPTEGTSPGFSTSKTTASSIIVKAGYLLRGAHLDGADLHLTADFNATTPIEVIGAPTGAKNLFVNGEKASHTVDKNGIWSSEVKYAAPEIKLPGLKDLDWKYLDTLPEIKSSYDDSAWVSADLPKTKNTHRPLDTPTSLYSSDYGFHTGYLIYRGHFVANGKESEFFIRTQGGSAFGSSVWLNETYLGSWTGADYAMDGNSTYKLSQLESGKNYVITVVIDNLGLDENWTVGEETMKNPRGILSYKLSGQDASAITWKLTGNLGGEDYQDKVRGPLNEGGLYAERQGFHQPQPPSESWESGSPLEGLSKPGIGFYTAQFDLDLPKGWDVPLYFNFGNNTQAARAQLYVNGYQYGKFTGNVGPQTSFPVPEGILNYRGTNYVALSLWALESDGAKLGSFELSYTTPVLTGYGNVESPEQPKYEQRKGAY | 6.3 ± 0.1 mAu/min/mg | 2.08 | 85 | 52 | 3.5 | 2.1 |
